Source: the supplement of paper PMC5998384

Experiments:
HeLa Kyoto [1] = test: melting temperature (median over replicates), in situ; higher = more thermally stable
HeLa Kyoto [2] = test: thermal stability score vs G1/S (z-score of summed log2 fold changes over temperatures); higher = more thermally stable than in G1/S
HeLa Kyoto [3] = test: solubility in G1/S (NP-40 vs SDS abundance) (log2 ratio); higher = more soluble; details: cell cycle stage: G1/S
HeLa Kyoto [4] = test: solubility change mitosis vs G1/S (difference of NP-40 vs SDS log2 ratios) (log2 ratio difference); higher = more soluble in mitosis
[5] = cell cycle stage: early G1 (4.5 h after nocodazole release)
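For melting temperature (median over replicates), in situ in this document: HeLa Kyoto cells synchronized by double thymidine or nocodazole block, proteins quantified by TMT10plex mass spectrometry, three independent biological replicates.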
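For solubility change mitosis vs G1/S (difference of NP-40 vs SDS log2 ratios) in this document: synchronized HeLa Kyoto cells (double thymidine block for G1/S, nocodazole release for mitosis), protein amounts in NP-40 versus SDS lysates quantified by mass spectrometry, three biological replicates.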
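For solubility in G1/S (NP-40 vs SDS abundance) in this document: HeLa Kyoto cells arrested at G1/S by double thymidine block, proteins quantified by TMT10plex mass spectrometry in mild NP-40 versus SDS extracts, three biological replicates.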
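For thermal stability score vs G1/S (z-score of summed log2 fold changes over temperatures) in this document: synchronized HeLa Kyoto cells, proteins quantified by TMT10plex mass spectrometry, three biological replicates, mitosis taken 0.5 h after nocodazole release, G1/S directly after double thymidine block.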

## MGLTKQYLRYVASAVFGVIGSQKGNIVFVTLRGEKGRYVAVPACEHVFIWDLRKGEKILILQGLKQEVTCLCPSPDGLHLAVGYEDGSIRIFSLLSGEGNVTFNGHKAAITTLKYDQLGGRLASGSKDTDIIVWDVINESGLYRLKGHKDAITQALFLREKNLLVTSGKDTMVKWWDLDTQHCFKTMVGHRTEVWGLVLLSEEKRLITGASDSELRVWDIAYLQEIEDPEEPDPKKIKGSSPGIQDTLEAEDGAFETDEAPEDRILSCRKAGSIMREGRDRVVNLAVDKTGRILACHGTDSVLELFCILSKKEIQKKMDKKMKKARKKAKLHSSKGEEEDPEVNVEMSLQDEIQRVTNIKTSAKIKSFDLIHSPHGELKAVFLLQNNLVELYSLNPSLPTPQPVRTSRITIGGHRSDVRTLSFSSDNIAVLSAAADSIKIWNRSTLQCIRTMTCEYALCSFFVPGDRQVVIGTKTGKLQLYDLASGNLLETIDAHDGALWSMSLSPDQRGFVTGGADKSVKFWDFELVKDENSTQKRLSVKQTRTLQLDEDVLCVSYSPNQKLLAVSLLDCTVKIFYVDTLKFFLSLYGHKLPVICMDISHDGALIATGSADRNVKIWGLDFGDCHKSLFAHDDSVMYLQFVPKSHLFFTAGKDHKIKQWDADKFEHIQTLEGHHQEIWCLAVSPSGDYVVSSSHDKSLRLWERTREPLILEEEREMEREAEYEESVAKEDQPAVPGETQGDSYFTGKKTIETVKAAERIMEAIELYREETAKMKEHKAICKAAGKEVPLPSNPILMAYGSISPSAYVLEIFKGIKSSELEESLLVLPFSYVPDILKLFNEFIQLGSDVELICRCLFFLLRIHFGQITSNQMLVPVIEKLRETTISKVSQVRDVIGFNMAGLDYLKRECEAKSEVMFFADATSHLEEKKRKRKKREKLILTLT [WDR3]
HeLa Kyoto [1]; cell cycle stage: G1/S
  melting temperature: 50.2 °C
HeLa Kyoto [1]; cell cycle stage: mitosis
  melting temperature: 50.9 °C
HeLa Kyoto [2]; [5]
  thermal stability score: 2.25
HeLa Kyoto [2]; cell cycle stage: mitosis
  thermal stability score: 3.44
HeLa Kyoto [3]
  solubility in G1/S (log2): -1.64
HeLa Kyoto [4]
  solubility change mitosis (log2): 0.614

## MAGQGLPLHVATLLTGLLECLGFAGVLFGWPSLVFVFKNEDYFKDLCGPDAGPIGNATGQADCKAQDERFSLIFTLGSFMNNFMTFPTGYIFDRFKTTVARLIAIFFYTTATLIIAFTSAGSAVLLFLAMPMLTIGGILFLITNLQIGNLFGQHRSTIITLYNGAFDSSSAVFLIIKLLYEKGISLRASFIFISVCSTWHVARTFLLMPRGHIPYPLPPNYSYGLCPGNGTTKEEKETAEHENRELQSKEFLSAKEETPGAGQKQELRSFWSYAFSRRFAWHLVWLSVIQLWHYLFIGTLNSLLTNMAGGDMARVSTYTNAFAFTQFGVLCAPWNGLLMDRLKQKYQKEARKTGSSTLAVALCSTVPSLALTSLLCLGFALCASVPILPLQYLTFILQVISRSFLYGSNAAFLTLAFPSEHFGKLFGLVMALSAVVSLLQFPIFTLIKGSLQNDPFYVNVMFMLAILLTFFHPFLVYRECRTWKESPSAIA [SLC43A3]
HeLa Kyoto [1]; cell cycle stage: G1/S
  melting temperature: 58.3 °C
HeLa Kyoto [1]; cell cycle stage: mitosis
  melting temperature: 58.2 °C
HeLa Kyoto [2]; [5]
  thermal stability score: -0.857
HeLa Kyoto [2]; cell cycle stage: mitosis
  thermal stability score: -2.36
HeLa Kyoto [3]
  solubility in G1/S (log2): 0.205
HeLa Kyoto [4]
  solubility change mitosis (log2): -0.114

## MDTPENVLQMLEAHMQSYKGNDPLGEWERYIQWVEENFPENKEYLITLLEHLMKEFLDKKKYHNDPRFISYCLKFAEYNSDLHQFFEFLYNHGIGTLSSPLYIAWAGHLEAQGELQHASAVLQRGIQNQAEPREFLQQQYRLFQTRLTETHLPAQARTSEPLHNVQVLNQMITSKSNPGNNMACISKNQGSELSGVISSACDKESNMERRVITISKSEYSVHSSLASKVDVEQVVMYCKEKLIRGESEFSFEELRAQKYNQRRKHEQWVNEDRHYMKRKEANAFEEQLLKQKMDELHKKLHQVVETSHEDLPASQERSEVNPARMGPSVGSQQELRAPCLPVTYQQTPVNMEKNPREAPPVVPPLANAISAALVSPATSQSIAPPVPLKAQTVTDSMFAVASKDAGCVNKSTHEFKPQSGAEIKEGCETHKVANTSSFHTTPNTSLGMVQATPSKVQPSPTVHTKEALGFIMNMFQAPTLPDISDDKDEWQSLDQNEDAFEAQFQKNVRSSGAWGVNKIISSLSSAFHVFEDGNKENYGLPQPKNKPTGARTFGERSVSRLPSKPKEEVPHAEEFLDDSTVWGIRCNKTLAPSPKSPGDFTSAAQLASTPFHKLPVESVHILEDKENVVAKQCTQATLDSCEENMVVPSRDGKFSPIQEKSPKQALSSHMYSASLLRLSQPAAGGVLTCEAELGVEACRLTDTDAAIAEDPPDAIAGLQAEWMQMSSLGTVDAPNFIVGNPWDDKLIFKLLSGLSKPVSSYPNTFEWQCKLPAIKPKTEFQLGSKLVYVHHLLGEGAFAQVYEATQGDLNDAKNKQKFVLKVQKPANPWEFYIGTQLMERLKPSMQHMFMKFYSAHLFQNGSVLVGELYSYGTLLNAINLYKNTPEKVMPQGLVISFAMRMLYMIEQVHDCEIIHGDIKPDNFILGNGFLEQDDEDDLSAGLALIDLGQSIDMKLFPKGTIFTAKCETSGFQCVEMLSNKPWNYQIDYFGVAATVYCMLFGTYMKVKNEGGECKPEGLFRRLPHLDMWNEFFHVMLNIPDCHHLPSLDLLRQKLKKVFQQHYTNKIRALRNRLIVLLLECKRSRK [BUB1]
HeLa Kyoto [1]; cell cycle stage: G1/S
  melting temperature: 48.8 °C
HeLa Kyoto [1]; cell cycle stage: mitosis
  melting temperature: 49.9 °C
HeLa Kyoto [2]; [5]
  thermal stability score: 0.554
HeLa Kyoto [2]; cell cycle stage: mitosis
  thermal stability score: 1.15
HeLa Kyoto [3]
  solubility in G1/S (log2): -0.019
HeLa Kyoto [4]
  solubility change mitosis (log2): -0.112

## MPFAEDKTYKYICRNFSNFCNVDVVEILPYLPCLTARDQDRLRATCTLSGNRDTLWHLFNTLQRRPGWVEYFIAALRGCELVDLADEVASVYQSYQPRTSDRPPDPLEPPSLPAERPGPPTPAAAHSIPYNSCREKEPSYPMPVQETQAPESPGENSEQALQTLSPRAIPRNPDGGPLESSSDLAALSPLTSSGHQEQDTELGSTHTAGATSSLTPSRGPVSPSVSFQPLARSTPRASRLPGPTGSVVSTGTSFSSSSPGLASAGAAEGKQGAESDQAEPIICSSGAEAPANSLPSKVPTTLMPVNTVALKVPANPASVSTVPSKLPTSSKPPGAVPSNALTNPAPSKLPINSTRAGMVPSKVPTSMVLTKVSASTVPTDGSSRNEETPAAPTPAGATGGSSAWLDSSSENRGLGSELSKPGVLASQVDSPFSGCFEDLAISASTSLGMGPCHGPEENEYKSEGTFGIHVAENPSIQLLEGNPGPPADPDGGPRPQADRKFQEREVPCHRPSPGALWLQVAVTGVLVVTLLVVLYRRRLH [MAVS]
HeLa Kyoto [1]; cell cycle stage: G1/S
  melting temperature: 54.2 °C
HeLa Kyoto [1]; cell cycle stage: mitosis
  melting temperature: 54.4 °C
HeLa Kyoto [2]; [5]
  thermal stability score: -0.897
HeLa Kyoto [2]; cell cycle stage: mitosis
  thermal stability score: -0.611
HeLa Kyoto [3]
  solubility in G1/S (log2): 0.462
HeLa Kyoto [4]
  solubility change mitosis (log2): -0.239

## ATP13A1
HeLa Kyoto [1]; cell cycle stage: G1/S
  melting temperature: 53.1 °C
HeLa Kyoto [1]; cell cycle stage: mitosis
  melting temperature: 52.9 °C
HeLa Kyoto [2]; [5]
  thermal stability score: -0.031
HeLa Kyoto [2]; cell cycle stage: mitosis
  thermal stability score: -0.441
HeLa Kyoto [3]
  solubility in G1/S (log2): -0.281
HeLa Kyoto [4]
  solubility change mitosis (log2): -0.00617

## MAETEERSLDNFFAKRDKKKKKERSNRAASAAGAAGSAGGSSGAAGAAGGGAGAGTRPGDGGTASAGAAGPGAATKAVTKDEDEWKELEQKEVDYSGLRVQAMQISSEKEEDDNEKRQDPGDNWEEGGGGGGGMEKSSGPWNKTAPVQAPPAPVIVTETPEPAMTSGVYRPPGARLTTTRKTPQGPPEIYSDTQFPSLQSTAKHVESRKDKEMEKSFEVVRHKNRGRDEVSKNQALKLQLDNQYAVLENQKSSHSQYN [CDV3]
HeLa Kyoto [1]; cell cycle stage: G1/S
  melting temperature: 57.2 °C
HeLa Kyoto [1]; cell cycle stage: mitosis
  melting temperature: 53.4 °C
HeLa Kyoto [2]; [5]
  thermal stability score: -2.3
HeLa Kyoto [2]; cell cycle stage: mitosis
  thermal stability score: -4.45
HeLa Kyoto [3]
  solubility in G1/S (log2): -0.0527
HeLa Kyoto [4]
  solubility change mitosis (log2): 0.0994

## MGSPLRFDGRVVLVTGAGAGLGRAYALAFAERGALVVVNDLGGDFKGVGKGSLAADKVVEEIRRRGGKAVANYDSVEEGEKVVKTALDAFGRIDVVVNNAGILRDRSFARISDEDWDIIHRVHLRGSFQVTRAAWEHMKKQKYGRIIMTSSASGIYGNFGQANYSAAKLGLLGLANSLAIEGRKSNIHCNTIAPNAGSRMTQTVMPEDLVEALKPEYVAPLVLWLCHESCEENGGLFEVGAGWIGKLRWERTLGAIVRQKNHPMTPEAVKANWKKICDFENASKPQSIQESTGSIIEVLSKIDSEGGVSANHTSRATSTATSGFAGAIGQKLPPFSYAYTELEAIMYALGVGASIKDPKDLKFIYEGSSDFSCLPTFGVIIGQKSMMGGGLAEIPGLSINFAKVLHGEQYLELYKPLPRAGKLKCEAVVADVLDKGSGVVIIMDVYSYSEKELICHNQFSLFLVGSGGFGGKRTSDKVKVAVAIPNRPPDAVLTDTTSLNQAALYRLSGDWNPLHIDPNFASLAGFDKPILHGLCTFGFSARRVLQQFADNDVSRFKAIKARFAKPVYPGQTLQTEMWKEGNRIHFQTKVQETGDIVISNAYVDLAPTSGTSAKTPSEGGKLQSTFVFEEIGRRLKDIGPEVVKKVNAVFEWHITKGGNIGAKWTIDLKSGSGKVYQGPAKGAADTTIILSDEDFMEVVLGKLDPQKAFFSGRLKARGNIMLSQKLQMILKDYAKL [HSD17B4]
HeLa Kyoto [1]; cell cycle stage: G1/S
  melting temperature: 54.2 °C
HeLa Kyoto [1]; cell cycle stage: mitosis
  melting temperature: 54.1 °C
HeLa Kyoto [2]; [5]
  thermal stability score: 0.589
HeLa Kyoto [2]; cell cycle stage: mitosis
  thermal stability score: 0.868
HeLa Kyoto [3]
  solubility in G1/S (log2): 0.00461
HeLa Kyoto [4]
  solubility change mitosis (log2): -0.0933

## MEKRLGVKPNPASWILSGYYWQTSAKWLRSLYLFYTCFCFSVLWLSTDASESRCQQGKTQFGVGLRSGGENHLWLLEGTPSLQSCWAACCQDSACHVFWWLEGMCIQADCSRPQSCRAFRTHSSNSMLVFLKKFQTADDLGFLPEDDVPHLLGLGWNWASWRQSPPRAALRPAVSSSDQQSLIRKLQKRGSPSDVVTPIVTQHSKVNDSNELGGLTTSGSAEVHKAITISSPLTTDLTAELSGGPKNVSVQPEISEGLATTPSTQQVKSSEKTQIAVPQPVAPSYSYATPTPQASFQSTSAPYPVIKELVVSAGESVQITLPKNEVQLNAYVLQEPPKGETYTYDWQLITHPRDYSGEMEGKHSQILKLSKLTPGLYEFKVIVEGQNAHGEGYVNVTVKPEPRKNRPPIAIVSPQFQEISLPTTSTVIDGSQSTDDDKIVQYHWEELKGPLREEKISEDTAILKLSKLVPGNYTFSLTVVDSDGATNSTTANLTVNKAVDYPPVANAGPNQVITLPQNSITLFGNQSTDDHGITSYEWSLSPSSKGKVVEMQGVRTPTLQLSAMQEGDYTYQLTVTDTIGQQATAQVTVIVQPENNKPPQADAGPDKELTLPVDSTTLDGSKSSDDQKIISYLWEKTQGPDGVQLENANSSVATVTGLQVGTYVFTLTVKDERNLQSQSSVNVIVKEEINKPPIAKITGNVVITLPTSTAELDGSKSSDDKGIVSYLWTRDEGSPAAGEVLNHSDHHPILFLSNLVEGTYTFHLKVTDAKGESDTDRTTVEVKPDPRKNNLVEIILDINVSQLTERLKGMFIRQIGVLLGVLDSDIIVQKIQPYTEQSTKMVFFVQNEPPHQIFKGHEVAAMLKSELRKQKADFLIFRALEVNTVTCQLNCSDHGHCDSFTKRCICDPFWMENFIKVQLRDGDSNCEWSVLYVIIATFVIVVALGILSWTVICCCKRQKGKPKRKSKYKILDATDQESLELKPTSRAGIKQKGLLLSSSLMHSESELDSDDAIFTWPDREKGKLLHGQNGSVPNGQTPLKARSPREEIL [KIAA0319L]
HeLa Kyoto [1]; cell cycle stage: G1/S
  melting temperature: 58.5 °C
HeLa Kyoto [1]; cell cycle stage: mitosis
  melting temperature: 56.2 °C
HeLa Kyoto [2]; [5]
  thermal stability score: -3.99
HeLa Kyoto [2]; cell cycle stage: mitosis
  thermal stability score: -5.23
HeLa Kyoto [3]
  solubility in G1/S (log2): 0.0342
HeLa Kyoto [4]
  solubility change mitosis (log2): 0.0841
